Assay results: patent US20150307555A1

Key:
[1] = biological target: human V2 receptor (human) (UniProt P30518); assay: cell-based or functional assay
[2] = biological target: human V1b receptor (human) (UniProt P47901); assay: cell-based or functional assay
Chain of human V1b receptor (human) (P47901 whole entry): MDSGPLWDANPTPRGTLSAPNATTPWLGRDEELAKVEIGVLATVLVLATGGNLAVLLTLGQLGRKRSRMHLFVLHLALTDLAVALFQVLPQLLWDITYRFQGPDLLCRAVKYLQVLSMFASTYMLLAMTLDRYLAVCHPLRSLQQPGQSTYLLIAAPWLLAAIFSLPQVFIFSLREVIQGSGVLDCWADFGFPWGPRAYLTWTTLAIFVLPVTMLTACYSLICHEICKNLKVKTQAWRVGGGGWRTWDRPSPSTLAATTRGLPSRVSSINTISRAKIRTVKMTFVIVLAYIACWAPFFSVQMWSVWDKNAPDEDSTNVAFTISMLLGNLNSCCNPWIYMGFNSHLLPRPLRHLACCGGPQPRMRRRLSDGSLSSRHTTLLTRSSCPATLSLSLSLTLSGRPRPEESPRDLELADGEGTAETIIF

| EC50 hV2-R [1] [nM] | % Efficacy hV1b-R [2] [%] | % Efficacy hV2-R [1] [%] | Substance |
| --- | --- | --- | --- |
| 0.04 |  |  | Arginine Vasopressin (peptide; unit assumed) |
|  | 100 | 100 | Desmopressin, [1-deamino, 8-D-arginine]-vasopressin (peptide) |
|  |  | 89 | [Val4]dDAVP (peptide) |
| 0.05 |  |  | [Val4]dDAVP (peptide; unit assumed) |
